# Test results as given in US20130274185A1, “Pharmaceutical for Pseudo-Exercise Therapy” (THE UNIVERSITY OF TOKYO, priority 2010, published 2013).
# Entries after “also recorded” stand apart in the source; their conditions may differ.
# Tests used:
# PGC-1α = PGC-1α acetylation in C2C12 myocytes; type: cell-based, mouse; conditions: treatment for 2 hr
# Experimental: (§1) The mouse C2C12 myoblasts were grown in 90% Dulbecco's modified high glucose Eagle's medium containing 10% (v/v) fetal bovine serum. When the cells reached 80% confluent, the myoblasts were induced to differentiate into myocytes by replacing the medium with a low serum differentiation medium (98% Dulbecco's modified high glucose Eagle's medium, 2.5% (v/v) horse serum). The medium was changed daily. The C2C12 cells were transfected by using Pofectamine 2000 (Invitrogen) and following the manufacturer's instructions.
# [1] = Plasma adiponectin level after intravenous adiponectin injection; type: in vivo, mice; conditions: 30 μg recombinant murine adiponectin per 10 g body weight, intravenously
# From the text: (§2) Mouse full-length adiponectin was generated as described in the following documents (Nature Med. 8, 1288-1295 (2002); Nature Med. 7, 941-946 (2001); Nature 423, 762-769 (2003)).
# C2C12 myocytes [2] = assay: Patch clamp test, whole-cell current in C2C12 myocytes; type: cell-based, mouse; conditions: adiponectin 30 μg/ml 30 sec, holding potential -60 mV
# Experimental: Whole-cell currents were amplified with a patch-clamp amplifier (CEZ-2400; Nihon Kohden) and were digitized with a PowerLab digitizer (AD Instruments). Ringer's solution was used for the extracellular solution. The electrode solution contained 140 mM KCl, 10 mM HEPES, 5 mM EGTA-2K, and 10 mM D-glucose (pH 7.4). The data were low-pass filtered at 2 kHz and were sampled at 20 kHz. Ligands dissolved in Ringer's solution were applied at least twice with a self-made pressure-ejection system and via a two-barreled glass capillary.
# AMPK = AMPK phosphorylation in C2C12 myocytes; type: cell-based, mouse; conditions: C2C12 myocytes, adiponectin 30 μg/ml
# Experimental: as §1
# C2C12 myocytes [3] = assay: NAD+/NADH measurements in C2C12 myocytes; type: cell-based, mouse
# Experimental: NAD^+ and NADH nucleotides were directly measured by the method described in the following document (Nature, 458, 1056-1060 (2009)). Whole skeletal muscles or two 10 cm dishes of C2C12 myocytes were homogenized in 200 μl of an acid extraction buffer to measure the NAD^+ concentration, or 200 μl of alkali extraction to obtain the NADH concentration. Next, homogenates were neutralized and the concentration of nucleotides was measured fluorimetrically after an enzymatic cycling reaction using 5 μl of a sample. Values for both nucleotides were detected within the linear range. NAD^+/NADH ratios were calculated by comparing the ratios obtained from each animal or from parallel cell dishes in each experiment.
# PGC-1α (Ppargc1a) = assay: Ppargc1a mRNA levels in skeletal muscle in vivo; parameters: species or system mice; conditions: control littermates; 30 μg per 10 g body weight, 10 min
# Experimental: as §2
# Real-time PCR was carried out according to the method described in the following documents (Nature Med. 13, 332-339 2007); Nature 423, 762-769 (2003); J. Biol. Chem. 281, 8748-8755 (2006)). Total RNA was prepared from cells or tissues by using Trizol (Invitrogen) according to the manufacturer's instructions. Quantification of mRNA was conducted using a real-time PCR method (Nature 423, 762-769 (2003)) with slight modifications. The procedures used for immunoblotting are described in the following documents (Nature Med. 7, 941-946 (2001); J. Biol. Chem. 281, 26602-26614 (2006); J. Biol. Chem. 281, 8748-8755 (2006)). The livers or muscles were freeze-clamped in liquid nitrogen in situ (Nature Med. 7, 941-946 (2001); J. Biol. Chem. 281, 26602-26614 (2006); J. Biol. Chem. 281, 8748-8755 (2006)).
# AdipoR1 = target: T1, AdipoR1 (Mus musculus, UniProt Q91VH1); assay: Electrophysiological recording in Xenopus oocytes expressing AdipoR1; type: cell-based
# T1 construct: expressed in transfected cells; host or cells: Xenopus oocytes (stage V to VII), cRNA synthesized from linearized modified pSPUTK
# T1 sequence (Q91VH1 1-375): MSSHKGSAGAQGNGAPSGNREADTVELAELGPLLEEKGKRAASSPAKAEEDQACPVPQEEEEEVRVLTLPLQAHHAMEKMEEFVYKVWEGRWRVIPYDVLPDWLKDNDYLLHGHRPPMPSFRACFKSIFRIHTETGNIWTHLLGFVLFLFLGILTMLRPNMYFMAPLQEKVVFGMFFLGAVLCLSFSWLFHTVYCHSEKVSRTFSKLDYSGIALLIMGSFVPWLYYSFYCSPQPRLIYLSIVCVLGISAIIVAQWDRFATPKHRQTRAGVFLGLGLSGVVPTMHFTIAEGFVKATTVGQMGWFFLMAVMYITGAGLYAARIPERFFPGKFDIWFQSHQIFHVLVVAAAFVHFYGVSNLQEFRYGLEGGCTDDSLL
# Experimental: Stage V to VII oocytes were treated with 2 mg/ml of collagenase S-1 (Nitta gelatin) in calcium ion-free saline solution (82.5 mM NaCl, 2 mM KCl, 1 mM MgCl2, and 5 mM HEPES, pH 7.5) for 1 to 2 hr at room temperature. The resulting oocytes were then microinjected with 50 ng of cRNA for mAdipoR1. The cRNA was synthesized from linearized modified pSPUTK. The injected oocytes were incubated for 3 days at 18° C. in a bath solution (88 mM NaCl, 1 mM KCl, 0.3 mM Ca(NO3)2, 0.4 mM CaCl2, 0.8 mM MgSO4, 2.4 mM […], 15 mM HEPES, pH 7.6) supplemented with 10 μg/ml of penicillin and streptomycin.
# Whole cell currents were recorded with a two-electrode voltage clamp technique. Intracellular glass electrodes were filled with 3M KCl. Signals were amplified with an OC-725C amplifier (Warner Instruments), low-pass filtered at 50 Hz, and digitized at 1 kHz. A control bath solution contained 115 mM NaCl, 2.5 mM KCl, 1.8 mM CaCl2, and 10 mM HEPES. It was titrated to pH 7.2 with NaOH. A calcium ion free solution containing 1.8 mM BaCl2 instead of CaCl2 was used. The inward current was monitored at a holding potential of −80 mV. Calcium ion activated Cl^− current was monitored by applying 500-mscc depolarizing pulses of +100 mV and +50 mV from the holding potential of −80 mV. Adiponectin was supplied to the superfusing bath solution via a silicon tube connected to computer-driven solenoid valves. Data acquisition and analysis were carried out using Digidata 1322A and pCLAMP software.
molecule,measurement,setting,value
"adiponectin (protein, UniProt Q60994 1-247, looked up, full-length, adipokine, internal ligand of adiponectin receptor 1; recombinant murine full-length adiponectin) MLLLQALLFLLILPSHAEDDVTTTEELAPALVPPPKGTCAGWMAGIPGHPGHNGTPGRDGRDGTPGEKGEKGDAGLLGPKGETGDVGMTGAEGPRGFPGTPGRKGEPGEAAYVYRSAFSVGLETRVTVPNVPIRFTKIFYNQQNHYDGSTGKFYCNIPGLYYFSYHITVYMKDVKVSLFKKDKAVLFTYDQYQEKNVDQASGSVLLHLEVGDQVWLQVYGDGDHNGLYADNVNDSTFTGFLLYHDTN",PGC-1α acetylation,PGC-1α,decreased PGC-1α acetylation
same,plasma adiponectin levels,[1],approximately 30 μg/ml
same,whole-cell inward current response,C2C12 myocytes [2],Inward current responses to adiponectin were observed
same,phosphorylation of AMPK α-subunits at Thr 172,AMPK,increased the phosphorylation of the AMPK α-subunits at Thr 172
same,NAD+ and NADH contents,C2C12 myocytes [3],increased
same,NAD+/NADH ratio,C2C12 myocytes [3],increased a NAD^+/NADH ratio; also recorded: increased the NAD^+/NADH ratio
same,expression levels of Ppargc1a in muscle,PGC-1α (Ppargc1a),increased the expression levels of Ppargc1a in the muscle of control littermates
same,calcium-ion activated Cl- current response,AdipoR1; control oocytes without AdipoR1 cRNA,not observed
same,inward current response,"AdipoR1; oocytes expressing AdipoR1, adiponectin 30 μg/ml, holding potential -80 mV",induced inward current responses
same,intracellular calcium levels by calcium-ion activated Cl- current,"AdipoR1; oocytes injected with AdipoR1 cRNA, adiponectin 30 μg/ml",increase in intracellular calcium levels
